Measured values as given in US20120220530A1.
pKd: −log10 of the molar value.

Key:
[1] = target: shFcRn heterodimer produced by GeneArt AG (human) (UniProt P55899); experiment: SPR (Biacore), immobilized shFcRn
[2] = target: soluble mouse FcRn (smFcRn) (mouse) (UniProt Q61559); experiment: SPR, FcRn immobilized, steady state (Req)
Chain of soluble mouse FcRn (smFcRn) (mouse) (Q61559 22-290): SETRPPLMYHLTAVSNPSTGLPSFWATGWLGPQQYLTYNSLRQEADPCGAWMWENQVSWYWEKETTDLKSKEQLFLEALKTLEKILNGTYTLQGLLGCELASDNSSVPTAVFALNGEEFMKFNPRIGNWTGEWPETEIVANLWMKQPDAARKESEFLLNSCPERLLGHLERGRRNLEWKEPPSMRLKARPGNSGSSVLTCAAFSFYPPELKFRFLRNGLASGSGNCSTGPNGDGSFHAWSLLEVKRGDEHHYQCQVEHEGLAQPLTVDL

Chain of shFcRn heterodimer produced by GeneArt AG (human) (P55899 24-290 limits assumed, chain 1 of 2): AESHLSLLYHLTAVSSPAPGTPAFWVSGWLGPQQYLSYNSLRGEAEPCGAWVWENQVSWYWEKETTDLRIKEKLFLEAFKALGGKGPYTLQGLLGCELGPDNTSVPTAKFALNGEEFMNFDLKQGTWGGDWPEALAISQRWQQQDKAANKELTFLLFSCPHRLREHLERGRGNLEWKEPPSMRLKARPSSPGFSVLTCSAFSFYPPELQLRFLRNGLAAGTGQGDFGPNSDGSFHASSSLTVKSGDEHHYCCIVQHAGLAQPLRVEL
Chain of shFcRn heterodimer produced by GeneArt AG (human) (chain, as listed by the source limits assumed, chain 2 of 2): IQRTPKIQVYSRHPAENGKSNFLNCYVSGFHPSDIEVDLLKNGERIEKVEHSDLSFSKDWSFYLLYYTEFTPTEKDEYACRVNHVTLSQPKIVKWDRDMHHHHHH

Question: “HSA K573P conjugated to horseradish peroxidase (from UniProt P00433 31-338)” was tested. Which pKd [1] did it give?
Answer: 7.70

Question: How did the pKd [2] turn out when “recombinant human serum albumin (RECOMBUMIN) (from UniProt P02768 25-609) (ligand; other documents disagree on this pair)” was run?
Answer: 4.06
